Experimental findings from patent US20150175708A1 are described below.

For experiment [1], the target named is MET on the cell surface of human tumor cell lines (human) (UniProt P08581). Description: cell-based or functional assay.
The target of experiment [2] is EGFR on the cell surface of human tumor cell lines (human) (UniProt P00533). Description: cell-based or functional assay.

Chain of MET on the cell surface of human tumor cell lines (human) (P08581 25-1390): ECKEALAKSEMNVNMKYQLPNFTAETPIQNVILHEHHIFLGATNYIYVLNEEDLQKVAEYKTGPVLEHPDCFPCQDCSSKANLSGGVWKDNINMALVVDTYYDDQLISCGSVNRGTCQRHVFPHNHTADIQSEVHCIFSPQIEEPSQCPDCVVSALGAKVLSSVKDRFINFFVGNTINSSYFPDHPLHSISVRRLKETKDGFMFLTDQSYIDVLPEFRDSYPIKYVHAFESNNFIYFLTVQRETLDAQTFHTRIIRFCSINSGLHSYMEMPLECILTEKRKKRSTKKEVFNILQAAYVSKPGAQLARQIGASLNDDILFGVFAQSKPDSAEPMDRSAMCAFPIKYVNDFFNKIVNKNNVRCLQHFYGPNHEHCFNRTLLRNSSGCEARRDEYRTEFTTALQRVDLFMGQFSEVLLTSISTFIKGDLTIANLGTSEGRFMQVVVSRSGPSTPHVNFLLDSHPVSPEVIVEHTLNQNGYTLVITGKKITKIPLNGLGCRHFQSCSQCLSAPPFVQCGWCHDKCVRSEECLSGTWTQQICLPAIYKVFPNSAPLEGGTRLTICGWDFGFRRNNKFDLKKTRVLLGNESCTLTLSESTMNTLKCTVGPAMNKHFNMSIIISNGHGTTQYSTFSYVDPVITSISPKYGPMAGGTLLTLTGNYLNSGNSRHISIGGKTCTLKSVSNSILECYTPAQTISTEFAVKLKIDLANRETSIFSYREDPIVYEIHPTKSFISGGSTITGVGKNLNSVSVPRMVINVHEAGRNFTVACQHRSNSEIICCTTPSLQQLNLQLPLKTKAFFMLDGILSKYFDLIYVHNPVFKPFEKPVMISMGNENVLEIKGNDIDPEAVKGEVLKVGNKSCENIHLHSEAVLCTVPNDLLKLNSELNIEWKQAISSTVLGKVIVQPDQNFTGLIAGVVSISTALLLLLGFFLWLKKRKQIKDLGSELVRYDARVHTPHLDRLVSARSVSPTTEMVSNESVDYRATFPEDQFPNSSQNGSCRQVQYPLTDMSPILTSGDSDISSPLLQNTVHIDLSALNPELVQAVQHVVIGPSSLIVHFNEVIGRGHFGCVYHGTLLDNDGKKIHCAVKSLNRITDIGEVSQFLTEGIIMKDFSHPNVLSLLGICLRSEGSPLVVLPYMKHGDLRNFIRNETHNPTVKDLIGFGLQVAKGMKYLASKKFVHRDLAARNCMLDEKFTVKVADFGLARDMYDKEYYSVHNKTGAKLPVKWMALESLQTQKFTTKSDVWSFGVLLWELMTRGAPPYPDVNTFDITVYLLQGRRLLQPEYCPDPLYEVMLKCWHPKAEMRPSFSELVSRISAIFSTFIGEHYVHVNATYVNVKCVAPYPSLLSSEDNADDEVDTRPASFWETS

In experiment [1], hIgG4 (antibody) came in with a % cell surface MET remaining, H441 cells, antibody 50 nM; isotype control, reference for the % of 100% and an AVG of MFI (staining of cell surface MET), H441 cells, antibody 50 nM; isotype control, reference for the % of 77.4 MFI. Moreover, in experiment [2], the % cell surface EGFR remaining, H441 cells, antibody 50 nM; isotype control, reference for the % worked out at 100% and the AVG of MFI (staining of cell surface EGFR), H441 cells, antibody 50 nM; isotype control, reference for the % is 56.3 MFI.
